This series has as its system Escherichia coli TOP10. As to the kind of experiment: shrunken log2 fold change of peptide-encoding DNA abundance (4.5 h post-induction vs induction); higher = less antimicrobial activity (less host growth inhibition). The conditions noted are these: time post-induction: 4.5 h; library: site-saturation at positions 5, 18, 19, 20.
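Note: peptides expressed intracellularly from a pBAD plasmid library in pooled LB shake-flask culture, induced with 0.3% L-arabinose, DNA abundance read by NGS, three biological replicates, DESeq2 with apeglm shrinkage.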

Turning to RRIRGRPPRLPRPRPRPLFQPRP, the “shrunken log2 fold change” value came to 0.266.

On to RRIRERPPRLPRPRPRPYTHPRP, for which the “shrunken log2 fold change” value was -0.623.

On to RRIRPRPPRLPRPRPRPPLPPRP, for which the “shrunken log2 fold change” value was 0.814.

As for RRIRTRPPRLPRPRPRPFKHPRP, the “shrunken log2 fold change” value was -0.126.

As to RRIRGRPPRLPRPRPRPVTYPRP, the “shrunken log2 fold change” value was -0.13.

Turning to RRIRKRPPRLPRPRPRPHAVPRP, the “shrunken log2 fold change” value is 0.132.

As to RRIRIRPPRLPRPRPRPHGIPRP, the “shrunken log2 fold change” value was -0.0115.

As to RRIRCRPPRLPRPRPRPNGIPRP, the “shrunken log2 fold change” value was -0.117.

Take RRIRDRPPRLPRPRPRPNPHPRP: the “shrunken log2 fold change” value was -0.247.

RRIRERPPRLPRPRPRPYLQPRP: the “shrunken log2 fold change” value is -0.138.

Regarding RRIRHRPPRLPRPRPRPSKPPRP, the “shrunken log2 fold change” value stood at 0.00696.

On to RRIRQRPPRLPRPRPRPTSTPRP, for which the “shrunken log2 fold change” value was -0.0784.

As to RRIRARPPRLPRPRPRPYFKPRP, the “shrunken log2 fold change” value is -0.551.

Regarding RRIRKRPPRLPRPRPRPDCAPRP, the “shrunken log2 fold change” value came to 1.1.

Turning to RRIRPRPPRLPRPRPRPHSTPRP, the “shrunken log2 fold change” value is -0.583.

Take RRIRWRPPRLPRPRPRPHPWPRP: the “shrunken log2 fold change” value amounted to 0.0859.

Consider RRIRYRPPRLPRPRPRPTGFPRP, for which the “shrunken log2 fold change” value is -0.0281.

RRIRSRPPRLPRPRPRPQVEPRP: the “shrunken log2 fold change” value was 0.0664.

As for RRIRWRPPRLPRPRPRPRWRPRP, the “shrunken log2 fold change” value is 0.552.

Consider RRIRTRPPRLPRPRPRPMKTPRP, for which the “shrunken log2 fold change” value came out at 0.0208.

For the sequence RRIRYRPPRLPRPRPRPYMPPRP, the “shrunken log2 fold change” value is -0.00804.

With RRIRVRPPRLPRPRPRPLSPPRP, the “shrunken log2 fold change” value was -0.172.

On to RRIRRRPPRLPRPRPRPRPFPRP, for which the “shrunken log2 fold change” value is 0.699.

In the case of RRIRERPPRLPRPRPRPLANPRP, the “shrunken log2 fold change” value was -0.225.

With RRIRWRPPRLPRPRPRPLASPRP, the “shrunken log2 fold change” value came out at 0.26.

As for RRIRIRPPRLPRPRPRPKNWPRP, the “shrunken log2 fold change” value was -0.035.

Regarding RRIRVRPPRLPRPRPRPHMPPRP, the “shrunken log2 fold change” value is -0.725.

As for RRIRVRPPRLPRPRPRPGNIPRP, the “shrunken log2 fold change” value is -0.116.

Regarding RRIRMRPPRLPRPRPRPDFRPRP, the “shrunken log2 fold change” value was found to be 0.146.

On to RRIRERPPRLPRPRPRPCCRPRP, for which the “shrunken log2 fold change” value came to 0.0107.

Turning to RRIRNRPPRLPRPRPRPIGSPRP, the “shrunken log2 fold change” value was -0.00277.

For the sequence RRIRIRPPRLPRPRPRPNYNPRP, the “shrunken log2 fold change” value is -1.12.

In the case of RRIRMRPPRLPRPRPRPHKEPRP, the “shrunken log2 fold change” value amounted to 0.0586.

RRIRCRPPRLPRPRPRPLNYPRP: the “shrunken log2 fold change” value was determined as 0.101.

RRIRHRPPRLPRPRPRPINEPRP: the “shrunken log2 fold change” value is -0.99.

As to RRIRPRPPRLPRPRPRPFKLPRP, the “shrunken log2 fold change” value was -0.00835.

RRIRCRPPRLPRPRPRPQCCPRP: the “shrunken log2 fold change” value was found to be 0.254.

Take RRIRCRPPRLPRPRPRPGVSPRP: the “shrunken log2 fold change” value is 0.0886.

As to RRIRGRPPRLPRPRPRPYTIPRP, the “shrunken log2 fold change” value came to 0.187.

Regarding RRIRGRPPRLPRPRPRPLMDPRP, the “shrunken log2 fold change” value came out at 1.04.

Consider RRIRGRPPRLPRPRPRPIISPRP, for which the “shrunken log2 fold change” value came out at 0.507.

Regarding RRIRPRPPRLPRPRPRPPWHPRP, the “shrunken log2 fold change” value was 0.196.

As for RRIRVRPPRLPRPRPRPYMWPRP, the “shrunken log2 fold change” value was -0.48.

Take RRIRHRPPRLPRPRPRPPTSPRP: the “shrunken log2 fold change” value was -0.128.

Regarding RRIRKRPPRLPRPRPRPEELPRP, the “shrunken log2 fold change” value is 2.77.

Take RRIRWRPPRLPRPRPRPSSRPRP: the “shrunken log2 fold change” value stood at 0.188.

In the case of RRIRMRPPRLPRPRPRPFKRPRP, the “shrunken log2 fold change” value came out at 0.0293.

Take RRIRKRPPRLPRPRPRPLSIPRP: the “shrunken log2 fold change” value was -0.0931.

Regarding RRIRARPPRLPRPRPRPWQDPRP, the “shrunken log2 fold change” value is 0.0326.

For the sequence RRIRTRPPRLPRPRPRPTDCPRP, the “shrunken log2 fold change” value amounted to 0.0577.

In the case of RRIRKRPPRLPRPRPRPEKGPRP, the “shrunken log2 fold change” value was -0.00382.

RRIRQRPPRLPRPRPRPCACPRP: the “shrunken log2 fold change” value is 0.0128.

As to RRIRCRPPRLPRPRPRPWMMPRP, the “shrunken log2 fold change” value was -0.0394.

Regarding RRIRGRPPRLPRPRPRPLFKPRP, the “shrunken log2 fold change” value worked out at 0.337.

RRIRNRPPRLPRPRPRPYEFPRP: the “shrunken log2 fold change” value came to 0.121.

For RRIRLRPPRLPRPRPRPYLRPRP, the “shrunken log2 fold change” value was -0.132.

RRIRCRPPRLPRPRPRPRIWPRP: the “shrunken log2 fold change” value was 0.0951.

Turning to RRIRKRPPRLPRPRPRPIVKPRP, the “shrunken log2 fold change” value was -0.158.

Regarding RRIRIRPPRLPRPRPRPVDHPRP, the “shrunken log2 fold change” value is -0.498.

Turning to RRIRIRPPRLPRPRPRPWPKPRP, the “shrunken log2 fold change” value was -0.122.

Regarding RRIRGRPPRLPRPRPRPAYMPRP, the “shrunken log2 fold change” value was -0.353.

Consider RRIRWRPPRLPRPRPRPLWWPRP, for which the “shrunken log2 fold change” value worked out at 0.927.

On to RRIRDRPPRLPRPRPRPVMTPRP, for which the “shrunken log2 fold change” value stood at 0.374.

RRIRHRPPRLPRPRPRPGYTPRP: the “shrunken log2 fold change” value was -0.302.

For RRIRKRPPRLPRPRPRPQKQPRP, the “shrunken log2 fold change” value is -0.0697.

Consider RRIRCRPPRLPRPRPRPCTEPRP, for which the “shrunken log2 fold change” value is -0.186.

With RRIRVRPPRLPRPRPRPTIAPRP, the “shrunken log2 fold change” value turned out to be 0.335.

For RRIRKRPPRLPRPRPRPCWHPRP, the “shrunken log2 fold change” value turned out to be 0.00832.

Turning to RRIRDRPPRLPRPRPRPPHDPRP, the “shrunken log2 fold change” value was determined as 2.35.

For the sequence RRIRLRPPRLPRPRPRPCWHPRP, the “shrunken log2 fold change” value is -0.0884.

In the case of RRIRMRPPRLPRPRPRPREMPRP, the “shrunken log2 fold change” value stood at 0.657.

With RRIRQRPPRLPRPRPRPMQAPRP, the “shrunken log2 fold change” value was determined as 0.116.

With RRIRERPPRLPRPRPRPTCLPRP, the “shrunken log2 fold change” value is -0.233.

As for RRIRCRPPRLPRPRPRPAQFPRP, the “shrunken log2 fold change” value amounted to 0.0313.

For the sequence RRIRKRPPRLPRPRPRPHMQPRP, the “shrunken log2 fold change” value is -0.0772.

Regarding RRIRSRPPRLPRPRPRPVAMPRP, the “shrunken log2 fold change” value is 0.0384.

Take RRIRRRPPRLPRPRPRPEQMPRP: the “shrunken log2 fold change” value is 0.19.

As to RRIRERPPRLPRPRPRPVQEPRP, the “shrunken log2 fold change” value is 0.0869.

For RRIRERPPRLPRPRPRPVHYPRP, the “shrunken log2 fold change” value is 0.198.

RRIRDRPPRLPRPRPRPERDPRP: the “shrunken log2 fold change” value is 0.312.

Turning to RRIRMRPPRLPRPRPRPFCHPRP, the “shrunken log2 fold change” value is -0.0129.

For RRIRVRPPRLPRPRPRPLKDPRP, the “shrunken log2 fold change” value is -0.242.

Turning to RRIRGRPPRLPRPRPRPNAYPRP, the “shrunken log2 fold change” value came to 0.426.

Consider RRIRFRPPRLPRPRPRPRMWPRP, for which the “shrunken log2 fold change” value worked out at 0.127.

As to RRIRPRPPRLPRPRPRPSRNPRP, the “shrunken log2 fold change” value came to 0.0326.

Consider RRIRNRPPRLPRPRPRPCCCPRP, for which the “shrunken log2 fold change” value was -0.0783.

Take RRIRLRPPRLPRPRPRPVVQPRP: the “shrunken log2 fold change” value worked out at 0.0325.

In the case of RRIRWRPPRLPRPRPRPQQMPRP, the “shrunken log2 fold change” value is -0.128.

On to RRIRDRPPRLPRPRPRPVWAPRP, for which the “shrunken log2 fold change” value came to 0.548.

For the sequence RRIRQRPPRLPRPRPRPAVGPRP, the “shrunken log2 fold change” value worked out at 0.0738.

On to RRIRQRPPRLPRPRPRPCYTPRP, for which the “shrunken log2 fold change” value is -0.149.

Source of the values: the supplement of paper PMC9112550, “Optimization of the antimicrobial peptide Bac7 by deep mutational scanning” (BMC Biology, 2022).
